T1: CD151 (UniProt P48509 1-253, limits assumed)
T1 construct: whole, on cells
T1 sequence (looked up): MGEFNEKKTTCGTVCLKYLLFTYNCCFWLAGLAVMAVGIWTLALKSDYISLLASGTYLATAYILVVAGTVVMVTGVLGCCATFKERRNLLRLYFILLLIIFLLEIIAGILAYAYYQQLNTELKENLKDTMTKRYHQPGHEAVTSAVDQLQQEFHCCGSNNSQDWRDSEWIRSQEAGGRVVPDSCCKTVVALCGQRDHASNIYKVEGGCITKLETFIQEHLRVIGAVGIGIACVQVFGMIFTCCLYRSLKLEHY

T2: IGSF8 (UniProt Q969P0 28-613, limits assumed)
T2 construct: whole, on cells
T2 sequence (looked up): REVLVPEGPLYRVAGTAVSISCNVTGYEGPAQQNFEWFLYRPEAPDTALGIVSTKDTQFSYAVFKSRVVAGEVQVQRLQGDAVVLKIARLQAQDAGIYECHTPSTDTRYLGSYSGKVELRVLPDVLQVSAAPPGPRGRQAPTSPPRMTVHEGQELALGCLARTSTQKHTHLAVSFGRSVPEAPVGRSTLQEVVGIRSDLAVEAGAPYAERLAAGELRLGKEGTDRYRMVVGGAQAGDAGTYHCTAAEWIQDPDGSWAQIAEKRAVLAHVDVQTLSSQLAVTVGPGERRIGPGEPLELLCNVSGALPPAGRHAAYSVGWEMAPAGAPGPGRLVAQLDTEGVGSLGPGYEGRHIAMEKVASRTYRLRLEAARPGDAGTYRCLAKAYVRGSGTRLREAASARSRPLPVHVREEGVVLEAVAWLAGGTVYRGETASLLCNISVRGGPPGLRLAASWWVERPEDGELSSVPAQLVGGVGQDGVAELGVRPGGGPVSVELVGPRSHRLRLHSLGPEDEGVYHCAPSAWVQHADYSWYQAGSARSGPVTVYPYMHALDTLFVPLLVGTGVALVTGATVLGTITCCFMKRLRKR

T3: CD81 (UniProt P60033 1-236, limits assumed)
T3 construct: whole, on cells
T3 sequence (looked up): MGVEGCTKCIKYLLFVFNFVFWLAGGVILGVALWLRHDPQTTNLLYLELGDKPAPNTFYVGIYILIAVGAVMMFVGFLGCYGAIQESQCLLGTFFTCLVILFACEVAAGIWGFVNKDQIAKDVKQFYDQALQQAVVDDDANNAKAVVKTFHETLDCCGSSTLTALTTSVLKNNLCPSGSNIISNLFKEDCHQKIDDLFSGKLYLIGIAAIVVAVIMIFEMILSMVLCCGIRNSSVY


How the values were obtained:
CD151 = target: T1, CD151; assay: flow cytometry on cells transfected with the target; signal over mock-transfected cells (background = 1.0)
Source text: (§1) Antibodies were generated using the common light chains B9, F10, C11, and H11 paired with 8 different heavy chains. […] Binding is expressed as Signal:Background for binding to the molecular target of the heavy chain antibody (listed at top of Table 4). Expression is based on binding to cells expressing an Fc-binding protein (the ZZ domain of ProA) (ZZ) on their surface, enabling total antibody to bind and be measured. Detection was using flow cytometry with cells transfected to express the target protein. Background binding S:B is normalized to 1.0, using mock-transfected cells as background. The data in the table below illustrate that the light chains can be used with a variety of heavy chains and the antibody generated from a VH that can bind to the light chains B9 and F10 will function and bind to the target of interest.

[1] = target: T4, Fc-binding protein (the ZZ domain of ProA); assay: flow cytometry on cells expressing the Fc-binding ZZ domain on their surface; given as a measure of expression
T4 construct: domain: ZZ domain of ProA; the construct is not described
Source text: as §1

IGSF8 = target: T2, IGSF8; assay: flow cytometry on cells transfected with the target; signal over mock-transfected cells (background = 1.0)
Source text: as §1

CD63 = target: T5, CD63 (UniProt P08962 2-238, limits assumed); assay: as above
T5 construct: whole, on cells
Source text: as §1

CD81 = target: T3, CD81; assay: as above
Source text: as §1

| Binder | S:B Binding (CD151) | S:B Expression [1] | S:B Binding (IGSF8) | S:B Binding (CD63) | S:B Binding (CD81) |
| --- | --- | --- | --- | --- | --- |
| Antibody of common light chain B9 (B9chicken) paired with the heavy chain against CD151 (antibody, V domains shown, also called HC-CD151) VH: AVTLDESGGGLQMPGGALSLVCKASGFTFSSYGMEWVRQAPGKGLEWVAGISSGGGSTDYGTAVKGRATISRDNGQSTVRLQLNNLRAEDTGTYFCAKSAYGGTWDGDDIDAWGHGTEVIVSS VL: ALTQPSSVSANPGETVKITCSGGGSSNYYGWYQQKSPGSAPVTLIYGTNKRPSDIPSRFSGSKSGSTGTLTITGVQADDEAVYFCGSADSSTNAGIFGAGTTLTVL | 27.4 S:B | 9.7 S:B |  |  |  |
| Antibody of common light chain B9 (B9chicken) paired with the heavy chain against IGSF8 (antibody, V domains shown, also called HC-IGSF8) VH: AVTLDESGGGLQTPGGGLSLVCKASGFSISSYEMQWVRQAPGKGLEWVAGIDDDGSSRAYAPAVKGRATISRDNGQSTVRLQLNNLRAEDTGTYYCAKTIYAATLNAGEIDAWGHGTEVIVSS VL: ALTQPSSVSANPGETVKITCSGGGSSNYYGWYQQKSPGSAPVTLIYGTNKRPSDIPSRFSGSKSGSTGTLTITGVQADDEAVYFCGSADSSTNAGIFGAGTTLTVL |  | 12.7 S:B | 1.7 S:B |  |  |
| Antibody of common light chain C11 (C11chicken) paired with the heavy chain against IGSF8 (antibody, V domains shown, also called HC-IGSF8) VH: AVTLDESGGGLQTPGGGLSLVCKASGFSISSYEMQWVRQAPGKGLEWVAGIDDDGSSRAYAPAVKGRATISRDNGQSTVRLQLNNLRAEDTGTYYCAKTIYAATLNAGEIDAWGHGTEVIVSS VL: ALTQPSSVSANPGETVKITCSGGGSWYGSYYYGWYQQKSPGSAPVTLIYNNDKRPSDIPSRFSGSESGSTATLTITGVQAEDEAVYFCGGYDSTTTDMFGAGTTLTVL |  | 12 S:B | 5.5 S:B |  |  |
| Antibody of common light chain C11 (C11chicken) paired with the heavy chain against CD63 (antibody, V domains shown, also called HC-CD63) VH: AVTLDESGGGLQTPGGALSLVCKASGFTFSDRGMHWVRQAPGKGLEWVAGIRSTGSFTLYGAAVKGRATISRDDGQSTLRLQLNNLRAEDTGTYYCAKSAGGYGCGRGWCGVDDIDAWGHGTEVIVSS VL: ALTQPSSVSANPGETVKITCSGGGSWYGSYYYGWYQQKSPGSAPVTLIYNNDKRPSDIPSRFSGSESGSTATLTITGVQAEDEAVYFCGGYDSTTTDMFGAGTTLTVL |  | 8.8 S:B |  | 0.8 S:B |  |
| Antibody of common light chain C11 (C11chicken) paired with the heavy chain against CD147 (antibody, V domains shown, also called HC-CD147) VH: AVTLDESGGGLQTPGGGLSLVCKASGFTFSSYAMYWVRQAPGKGLQWVAGISRDGSSGRYGAAVKGRATISRDNGQSTVRLQLNNLRAEDTATYFCAKSGYGDYTSADEIDAWGHGTEVIVSS VL: ALTQPSSVSANPGETVKITCSGGGSWYGSYYYGWYQQKSPGSAPVTLIYNNDKRPSDIPSRFSGSESGSTATLTITGVQAEDEAVYFCGGYDSTTTDMFGAGTTLTVL |  | 16.6 S:B |  |  |  |
| Antibody of light chain D3 (D3chicken) paired with the heavy chain against IGSF8 (antibody, V domains shown, also called HC-IGSF8) VH: AVTLDESGGGLQTPGGGLSLVCKASGFSISSYEMQWVRQAPGKGLEWVAGIDDDGSSRAYAPAVKGRATISRDNGQSTVRLQLNNLRAEDTGTYYCAKTIYAATLNAGEIDAWGHGTEVIVSS VL: ALTQPSSVSANPGETVKITCSGDDRWYGWYQQKSPGSAPVTLIYSNDKRPSDIPSRFSGSKSGSTGTLTITGVQADDEAVYFCGSRDSSYAGIFGAGTTLTVL |  | 3.2 S:B | 19.4 S:B |  |  |
| Antibody of light chain D3 (D3chicken) paired with the heavy chain against CD63 (antibody, V domains shown, also called HC-CD63) VH: AVTLDESGGGLQTPGGALSLVCKASGFTFSDRGMHWVRQAPGKGLEWVAGIRSTGSFTLYGAAVKGRATISRDDGQSTLRLQLNNLRAEDTGTYYCAKSAGGYGCGRGWCGVDDIDAWGHGTEVIVSS VL: ALTQPSSVSANPGETVKITCSGDDRWYGWYQQKSPGSAPVTLIYSNDKRPSDIPSRFSGSKSGSTGTLTITGVQADDEAVYFCGSRDSSYAGIFGAGTTLTVL |  | 3.9 S:B |  | 20.6 S:B |  |
| Antibody of light chain E1 (E1chicken) paired with the heavy chain against IGSF8 (antibody, V domains shown, also called HC-IGSF8) VH: AVTLDESGGGLQTPGGGLSLVCKASGFSISSYEMQWVRQAPGKGLEWVAGIDDDGSSRAYAPAVKGRATISRDNGQSTVRLQLNNLRAEDTGTYYCAKTIYAATLNAGEIDAWGHGTEVIVSS VL: ALTQPSSVSANPGETVKITCSGSSGSGYYGWYQQKSPGSAPVTLIYDNDKRPSDIPSRFSGSKSGSTGTLTITGVQADDEAVYFCGSADNNYTGIFGAGTTLTVL |  | 2 S:B | 18.1 S:B |  |  |

Now from value to binder:

| S:B Binding (CD151) | S:B Expression [1] | S:B Binding (IGSF8) | S:B Binding (CD63) | S:B Binding (CD81) | Binder |
| --- | --- | --- | --- | --- | --- |
|  | 11.3 S:B |  | 2.7 S:B |  | Antibody of common light chain B9 (B9chicken) paired with the heavy chain against CD63 (antibody, V domains shown, also called HC-CD63) VH: AVTLDESGGGLQTPGGALSLVCKASGFTFSDRGMHWVRQAPGKGLEWVAGIRSTGSFTLYGAAVKGRATISRDDGQSTLRLQLNNLRAEDTGTYYCAKSAGGYGCGRGWCGVDDIDAWGHGTEVIVSS VL: ALTQPSSVSANPGETVKITCSGGGSSNYYGWYQQKSPGSAPVTLIYGTNKRPSDIPSRFSGSKSGSTGTLTITGVQADDEAVYFCGSADSSTNAGIFGAGTTLTVL |
|  | 10.8 S:B |  |  | 0.6 S:B | Antibody of common light chain B9 (B9chicken) paired with the heavy chain against CD81 (antibody, V domains shown, also called HC-CD81) VH: AVTLDESGGGLQTPGGALSLVCKASGFSIGDYNMGWVRQAPGKGLEWVAGIDAGGGTWRATAVKGRATISRDNGQSTVRLQLNNLRAEDTATYFCAKSTDSSANCCANSIDAWGHGTEVIVSS VL: ALTQPSSVSANPGETVKITCSGGGSSNYYGWYQQKSPGSAPVTLIYGTNKRPSDIPSRFSGSKSGSTGTLTITGVQADDEAVYFCGSADSSTNAGIFGAGTTLTVL |
|  | 17 S:B |  |  |  | Antibody of common light chain B9 (B9chicken) paired with the heavy chain against CD147 (antibody, V domains shown, also called HC-CD147) VH: AVTLDESGGGLQTPGGGLSLVCKASGFTFSSYAMYWVRQAPGKGLQWVAGISRDGSSGRYGAAVKGRATISRDNGQSTVRLQLNNLRAEDTATYFCAKSGYGDYTSADEIDAWGHGTEVIVSS VL: ALTQPSSVSANPGETVKITCSGGGSSNYYGWYQQKSPGSAPVTLIYGTNKRPSDIPSRFSGSKSGSTGTLTITGVQADDEAVYFCGSADSSTNAGIFGAGTTLTVL |
| 1.4 S:B | 11.5 S:B |  |  |  | Antibody of common light chain C11 (C11chicken) paired with the heavy chain against CD151 (antibody, V domains shown, also called HC-CD151) VH: AVTLDESGGGLQMPGGALSLVCKASGFTFSSYGMEWVRQAPGKGLEWVAGISSGGGSTDYGTAVKGRATISRDNGQSTVRLQLNNLRAEDTGTYFCAKSAYGGTWDGDDIDAWGHGTEVIVSS VL: ALTQPSSVSANPGETVKITCSGGGSWYGSYYYGWYQQKSPGSAPVTLIYNNDKRPSDIPSRFSGSESGSTATLTITGVQAEDEAVYFCGGYDSTTTDMFGAGTTLTVL |
| 47.5 S:B | 6.5 S:B |  |  |  | Antibody of light chain D3 (D3chicken) paired with the heavy chain against CD151 (antibody, V domains shown, also called HC-CD151) VH: AVTLDESGGGLQMPGGALSLVCKASGFTFSSYGMEWVRQAPGKGLEWVAGISSGGGSTDYGTAVKGRATISRDNGQSTVRLQLNNLRAEDTGTYFCAKSAYGGTWDGDDIDAWGHGTEVIVSS VL: ALTQPSSVSANPGETVKITCSGDDRWYGWYQQKSPGSAPVTLIYSNDKRPSDIPSRFSGSKSGSTGTLTITGVQADDEAVYFCGSRDSSYAGIFGAGTTLTVL |
| 28.8 S:B | 11.3 S:B |  |  |  | Antibody of light chain E1 (E1chicken) paired with the heavy chain against CD151 (antibody, V domains shown, also called HC-CD151) VH: AVTLDESGGGLQMPGGALSLVCKASGFTFSSYGMEWVRQAPGKGLEWVAGISSGGGSTDYGTAVKGRATISRDNGQSTVRLQLNNLRAEDTGTYFCAKSAYGGTWDGDDIDAWGHGTEVIVSS VL: ALTQPSSVSANPGETVKITCSGSSGSGYYGWYQQKSPGSAPVTLIYDNDKRPSDIPSRFSGSKSGSTGTLTITGVQADDEAVYFCGSADNNYTGIFGAGTTLTVL |
|  | 24.4 S:B |  | 31.8 S:B |  | Antibody of light chain E1 (E1chicken) paired with the heavy chain against CD63 (antibody, V domains shown, also called HC-CD63) VH: AVTLDESGGGLQTPGGALSLVCKASGFTFSDRGMHWVRQAPGKGLEWVAGIRSTGSFTLYGAAVKGRATISRDDGQSTLRLQLNNLRAEDTGTYYCAKSAGGYGCGRGWCGVDDIDAWGHGTEVIVSS VL: ALTQPSSVSANPGETVKITCSGSSGSGYYGWYQQKSPGSAPVTLIYDNDKRPSDIPSRFSGSKSGSTGTLTITGVQADDEAVYFCGSADNNYTGIFGAGTTLTVL |
